Data taken from PMC8051604.

Columns and labels:
[1] = target: CitCHS1 (citrus chalcone synthase 1), pGADT7 fusion (Citrus reticulata cv. Suavissima (Ougan))
[2] = target: CitCHS2 (citrus chalcone synthase 2), pGADT7 fusion (Citrus reticulata cv. Suavissima (Ougan))
[3] = target: CitERF33, split-YFP fusion (BiFC) (Citrus reticulata cv. Suavissima (Ougan))

CitCHIL1 (citrus type IV chalcone isomerase), pGBKT7 fusion (natural protein)
k cat value of CitCHS1 for malonyl-CoA with CitCHIL1 against without it (in vitro chalcone synthase assay, purified recombinant proteins) [1]: 1.86 fold | k cat value of CitCHS1 for p-coumaroyl-CoA with CitCHIL1 against without it (in vitro chalcone synthase assay, purified recombinant proteins) [1]: 1.81 fold | k cat value of CitCHS2 for malonyl-CoA with CitCHIL1 against without it (in vitro chalcone synthase assay, purified recombinant proteins) [2]: 1.33 fold | k cat value of CitCHS2 for p-coumaroyl-CoA with CitCHIL1 against without it (in vitro chalcone synthase assay, purified recombinant proteins) [2]: 1.43 fold

CitRAV1, split-YFP fusion (BiFC) (natural protein)
activation of the CitCHIL1 promoter by CitERF33 and CitRAV1 together (dual-luciferase assay in N. benthamiana leaves, LUC/REN against empty vector; 1.6-fold for CitERF33/EV or CitRAV1/EV) [3]: 10.6 fold
